Assay results taken from patent US8357523B2, “Beta-glucosidase variant enzymes and related polynucleotides” (Codexis, Inc., priority 2009, dated 2013).

B1: 118 (protein)
chain: STAIAQEGAAPAAILHPEKWPRPATQRLIDPAVEKRVDALLKQLSVEEKVGQVIQGDIGTITPEDLRKYPLGSILAGGDSGPNGDDRAPPKEWLDLADAFYRVSLEKRPGHTPIPVLFGIDAVHGHGKIGSATIFPHNIALGMTRDPELLRRIGEVTAVEMTATGIDWTFAPALSVVRDDRWGRTYEGFSEDPEIVASYSAAIVEGVQGKYGSKDFMAPGRSVACAKHFLADGGTDQGRDQGDARISEDELIRIHNAGYPPAIDAGVLTVMASFSSWQGIKHHGHKQLLTDVLKGQMGFNGFIVGDWNAHDQVPGCTKFNCPTSLIAGLDMYMAADSWKQLYENTLAQVKDGTIPMARLDDAVRRILRVKVLAGLFEKPAPKDRPGLPGLETLGSPEHRAVGREAVRKSLVLLKNDKGTLPLSPKARVLVAGDGADNIGKQSGGWTISWQGTGNRNDEFPGATSILGGIRDAVADAGGSVEFDVAGQYKTKPDVAIVVFGEEPYAEFQGDVETLEYQPDQKQDLALLKKLKDQGIPVVAVFLSGRPMWVNPELNASDAFVAAWLPGTEGGGVADVLFTDKAGKVQHDFAGKLSYSWPRTAAQTTVNRGDADYNPLFAYGYGLTYKDKSKVGTLPEESGVPAEARQNAGIYFRAGALRLPGRFL
B2: 122 (protein)
chain: STAIAQEGAAPAAILHPEKWPRPATQRLIDPAVEKRVDALLKQLSVEEKVGQVIQGDIGTITPEDLRKYPLGSILAGGDSGPNGDDRAPPKEWLDLADAFYRVSLEKRPGHTPIPVLFGIDAVHGHGKIGSATIFPHNIALGATRDPELLRRIGEVTAEEMAATGIDWTFAPALSVVRDDRWGRTYEGFSEDPEIVAAYSPAIVEGVQGKYGSKDFMAVGRIVACAKHFLADGGTDQGRDQGDARISEDELIRIHNAGYPPAIDAGVLTVMASFSSWQGIKHHGHKQLLTDVLKGQMGFNGFIVGDWNAHDQVPGCTKFNCPTSLIAGLDMYMAADSWKQLYENTLAQVKDGTIPMARLDDAVRRILRVKVLAGLFEKPAPKDRPGLPGLETLGSPEHRAVGREAVRKSLVLLKNDKGTLPLSPKARVLVAGDGADNIGKQSGGWTISWQGTGNRNDEFPGATSILGGIRDAVADAGGSVEFDVAGQYKTKPDVAIVVFGEEPYAEFQGDVETLEYQPDQKQDLALLKKLKDQGIPVVAVFLSGRPMWVNPELNASDAFVAAWLPGTEGGGVADVLFTDKAGKVQHDFAGKLSYSWPRTAAQTTVNRGDADYNPLFAYGYGLTYKDKSKVGTLPEESGVPAEARQNAGIYFRAGALRLPGRFL
B3: 120 (protein)
chain: STAIAQEGAAPAAILHPEKWPRPATQRLIDPAVEKRVDALLKQLSVEEKVGQVIQGDIGTITPEDLRKYPLGSILAGGDSGPNGDDRAPPKEWLDLADAFYRVSLEKRPGHTPIPVLFGIDAVHGHGNIGSATIFPHNIALGATRDPELLRRIGEVTAVEMTATGIDWTFAPALSVVRDDRWGRTYEGFSEDPEIVASYSAAIVEGVQGKFGSKDFMAPGRIVASAKHFLADGGTDQGRDQGDARISEDELIRIHNAGYPPAIDAGVLTVMASFSSWQGIKHHGHKQLLTDVLKGQMGFNGFIVGDWNAHDQVPGCTKFNCPTSLIAGLDMYMAADSWKQLYENTLAQVKDGTIPMARLDDAVRRILRVKVLAGLFEKPAPKDRPGLPGLETLGSPEHRAVGREAVRKSLVLLKNDKGTLPLSPKARVLVAGDGADNIGKQSGGWTISWQGTGNRNDEFPGATSILGGIRDAVADAGGSVEFDVAGQYKTKPDVAIVVFGEEPYAEFQGDVETLEYQPDQKQDLALLKKLKDQGIPVVAVFLSGRPMWVNPELNASDAFVAAWLPGTEGGGVADVLFTDKAGKVQHDFAGKLSYSWPRTAAQTTVNRGDADYNPLFAYGYGLTYKDKSKVGTLPEESGVPAEARQNAGIYFRAGALRLPGRFP
B4: 119 (protein)
chain: STAIAQEGAAPAAILHPEKWPRPATQRLIDPAVEKRVDALLKQLSVEEKVGQVIQGDIGTITPEDLRKYPLGSILAGGNSGPNGDDRAPPKEWLDLADAFYRVSLEKRPGHTPIPVLFGIDAVHGHGNIGSATIFPHNIALGATRDPELLRRIGEVTAQEMAATGIDWTFAPALSVVRDDRWGRTYEGFSEDPEIVAAYSPAIVEGVQGKYGSKDFMAPGRIVACAKHFLADGGTDQGRDQGDARISEDELIRIHNAGYPPAIDAGVLTVMASFSSWQGIKHHGHKQLLTDVLKGQMGFNGFIVGDWNAHDQVPGCTKFNCPTSLIAGLDMYMAADSWKQLYENTLAQVKDGTIPMARLDDAVRRILRVKVLAGLFEKPAPKDRPGLPGLETLGSPEHRAVGREAVRKSLVLLKNDKGTLPLSPKARVLVAGDGADNIGKQSGGWTISWQGTGNRNDEFPGATSILGGIRDAVADAGGSVEFDVAGQYKTKPDVAIVVFGEEPYAEFQGDVETLEYQPDQKQDLALLKKLKDQGIPVVAVFLSGRPMWVNPELNASDAFVAAWLPGTEGGGVADVLFTDKAGKVQHDFAGKLSYSWPRTAAQTTVNRGDADYNPLFAYGYGLTYKDKSKVGTLPEESGVPAEARQNAGIYFRAGALRLPGRFL
B5: 123 (protein)
chain: STAIAQEGAAPAAILHPEKWPRPATQRLIDPAVEKRVDALLKQLSVEEKVGQVIQGDIGTITPEDLRKYPLGSILAGGDSGPNGDDRAPPKEWLDLADAFYRVSLEKRPGHTPIPVLFGIDAVHGHGKIGSATIFPHNIALGMTRDPELLRRIGEVTAVEMTATGIDWTFAPALSVVRDDRWGRTYEGFSEDPEIVAAYSPAIVEGVQGKYGSKDFMAVGRIVASAKHFLADGGTDQGRDQGDARISEDELIRIHNAGYPPAIDAGVLTVMASFSSWQGIKHHGHKQLLTDVLKGQMGFNGFIVGDWNAHDQVPGCTKFNCPTSLIAGLDMYMAADSWKQLYENTLAQVKDGTIPMARLDDAVRRILRVKVLAGLFEKPAPKDRPGLPGLETLGSPEHRAVGREAVRKSLVLLKNDKGTLPLSPKARVLVAGDGADNIGKQSGGWTISWQGTGNRNDEFPGATSILGGIRDAVADAGGSVEFDVAGQYKTKPDVAIVVFGEEPYAEFQGDVETLEYQPDQKQDLALLKKLKDQGIPVVAVFLSGRPMWVNPELNASDAFVAAWLPGTEGGGVADVLFTDKAGKVQHDFAGKLSYSWPRTAAQTTVNRGDADYNPLFAYGYGLTYKDKSKVGTLPEESGVPAEARQNAGIYFRAGALRLPGRFL
B6: 121 (protein)
chain: STAIAQEGAAPAAILHPEKWPRPATQRLIDPAVEKRVDALLKQLSVEEKVGQVIQGDIGTITPEDLRKYPLGSILAGGNSGPNGDDRAPPKEWLDLADAFYRVSLEKRPGHTPIPVLFGIDAVHGHGNIGSATIFPHNIALGATRSPELLRRIGEVTAVEMTATGIDWTFAPCLSVVRDDRWGRTYEGFSEDPEIVAAYSPAIVEGVQGKFGSKDFMAPGRIVASAKHFLADGGTDQGRDQGDARISEDELIRIHNAGYPPAIDAGVLTVMASFSSWQGIKHHGHKQLLTDVLKGQMGFNGFIVGDWNAHDQVPGCTKFNCPTSLIAGLDMYMAADSWKQLYENTLAQVKDGTIPMARLDDAVRRILRVKVLAGLFEKPAPKDRPGLPGLETLGSPEHRAVGREAVRKSLVLLKNDKGTLPLSPKARVLVAGDGADNIGKQSGGWTISWQGTGNRNDEFPGATSILGGIRDAVADAGGSVEFDVAGQYKTKPDVAIVVFGEEPYAEFQGDVETLEYQPDQKQDLALLKKLKDQGIPVVAVFLSGRPMWVNPELNASDAFVAAWLPGTEGGGVADVLFTDKAGKVQHDFAGKLSYSWPRTAAQTTVNRGDADYNPLFAYGYGLTYKDKSKVGTLPEESGVPAEARQNAGIYFRAGALRLPGRFL

assay: High throughput cellobiose assay: fold improvement in cellobiase activity of CelA variants over a control enzyme (Tables 2A-2D, 3, 5, 6, 7); type: biochemical; conditions: 3.3 g/l cellobiose, 55° C. and pH 6.0

Molecule	Fold improvement over Control Variant No. 5 from Table 2A
B1	+++ (+++ = 6 to 13 fold improvement over control Variant No. 2)
B2	+++ (+++ = 6 to 13 fold improvement over control Variant No. 2)
B3	+++ (+++ = 6 to 13 fold improvement over control Variant No. 2)
B4	+++ (+++ = 6 to 13 fold improvement over control Variant No. 2)
B5	++ (++ = 1.1 to 6 fold improvement over control Variant No. 2)
B6	++ (++ = 1.1 to 6 fold improvement over control Variant No. 2)
